Results on two molecules are retold here after patent US12679878B2, “CRF2 receptor agonists and their use in therapy” (SANOFI, priority 2020, dated 2026).

Starred links: 1 amine or outer side, 2 acyl side, 3 side chain; linkers in the order of their positions; H or OH if unused. Non-standard residues stand in square brackets, D forms with d. Groups on a side chain read outwards from the residue. No end group written: not given here. *: point of attachment. C16 diacid = O=C(O)CCCCCCCCCCCCCCC(=O)*; γGlu = O=C(O)[C@H](CCC(=O)[*:2])N[*:1]; Aib = CC(C)(N)C(=O)O

This assay deals with T1, CRF1R receptor (anti-target) (UniProt P34998 24-415, limits assumed).
T1 sequence (looked up): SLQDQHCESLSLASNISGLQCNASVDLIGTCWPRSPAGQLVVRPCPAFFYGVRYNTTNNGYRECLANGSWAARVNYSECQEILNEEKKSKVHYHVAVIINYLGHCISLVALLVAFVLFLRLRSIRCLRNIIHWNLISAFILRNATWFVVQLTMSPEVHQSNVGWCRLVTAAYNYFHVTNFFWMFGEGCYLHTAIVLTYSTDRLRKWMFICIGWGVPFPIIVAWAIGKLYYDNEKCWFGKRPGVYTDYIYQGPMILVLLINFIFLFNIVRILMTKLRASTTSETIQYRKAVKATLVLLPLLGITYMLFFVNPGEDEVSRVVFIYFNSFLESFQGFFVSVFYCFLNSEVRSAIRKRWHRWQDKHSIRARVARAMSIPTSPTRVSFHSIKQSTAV
Put plainly: cell-based or functional assay.

B1: peptide of SEQ ID NO: 187 (peptide)
peptide: IVLSLD[dV]PIKLK([γGlu-C16 diacid])QILLKQERQK[Aib]QREQAEKNKQILAQV-NH2
modifications: N-terminus assumed
SMILES: CC[C@H](C)[C@H](N)C(=O)N[C@H](C(=O)N[C@@H](CC(C)C)C(=O)N[C@@H](CO)C(=O)N[C@@H](CC(C)C)C(=O)N[C@@H](CC(=O)O)C(=O)N[C@@H](C(=O)N1CCC[C@H]1C(=O)N[C@H](C(=O)N[C@@H](CCCCN)C(=O)N[C@@H](CC(C)C)C(=O)N[C@@H](CCCCNC(=O)CC[C@H](NC(=O)CCCCCCCCCCCCCCC(=O)O)C(=O)O)C(=O)N[C@@H](CCC(N)=O)C(=O)N[C@H](C(=O)N[C@@H](CC(C)C)C(=O)N[C@@H](CC(C)C)C(=O)N[C@@H](CCCCN)C(=O)N[C@@H](CCC(N)=O)C(=O)N[C@@H](CCC(=O)O)C(=O)N[C@@H](CCCNC(=N)N)C(=O)N[C@@H](CCC(N)=O)C(=O)N[C@@H](CCCCN)C(=O)NC(C)(C)C(=O)N[C@@H](CCC(N)=O)C(=O)N[C@@H](CCCNC(=N)N)C(=O)N[C@@H](CCC(=O)O)C(=O)N[C@@H](CCC(N)=O)C(=O)N[C@@H](C)C(=O)N[C@@H](CCC(=O)O)C(=O)N[C@@H](CCCCN)C(=O)N[C@@H](CC(N)=O)C(=O)N[C@@H](CCCCN)C(=O)N[C@@H](CCC(N)=O)C(=O)N[C@H](C(=O)N[C@@H](CC(C)C)C(=O)N[C@@H](C)C(=O)N[C@@H](CCC(N)=O)C(=O)N[C@H](C(N)=O)C(C)C)[C@@H](C)CC)[C@@H](C)CC)[C@@H](C)CC)C(C)C)C(C)C
Consider B1, for which the “EC50 [nM] 0% HSA (cAMP, HTRF)” value was greater than 100 nM and the “Emax (%) (100% = Sauvagine at 100 nM)” value turned out to be 43.8%.

B2: peptide of SEQ ID NO: 189 (peptide)
peptide: IVLSLD[dV]PIKLK([γGlu-C16 diacid])QILLKQERQKK[Aib]RQKAEKNKQILAQV-NH2
modifications: N-terminus assumed
SMILES: CC[C@H](C)[C@H](N)C(=O)N[C@H](C(=O)N[C@@H](CC(C)C)C(=O)N[C@@H](CO)C(=O)N[C@@H](CC(C)C)C(=O)N[C@@H](CC(=O)O)C(=O)N[C@@H](C(=O)N1CCC[C@H]1C(=O)N[C@H](C(=O)N[C@@H](CCCCN)C(=O)N[C@@H](CC(C)C)C(=O)N[C@@H](CCCCNC(=O)CC[C@H](NC(=O)CCCCCCCCCCCCCCC(=O)O)C(=O)O)C(=O)N[C@@H](CCC(N)=O)C(=O)N[C@H](C(=O)N[C@@H](CC(C)C)C(=O)N[C@@H](CC(C)C)C(=O)N[C@@H](CCCCN)C(=O)N[C@@H](CCC(N)=O)C(=O)N[C@@H](CCC(=O)O)C(=O)N[C@@H](CCCNC(=N)N)C(=O)N[C@@H](CCC(N)=O)C(=O)N[C@@H](CCCCN)C(=O)N[C@@H](CCCCN)C(=O)NC(C)(C)C(=O)N[C@@H](CCCNC(=N)N)C(=O)N[C@@H](CCC(N)=O)C(=O)N[C@@H](CCCCN)C(=O)N[C@@H](C)C(=O)N[C@@H](CCC(=O)O)C(=O)N[C@@H](CCCCN)C(=O)N[C@@H](CC(N)=O)C(=O)N[C@@H](CCCCN)C(=O)N[C@@H](CCC(N)=O)C(=O)N[C@H](C(=O)N[C@@H](CC(C)C)C(=O)N[C@@H](C)C(=O)N[C@@H](CCC(N)=O)C(=O)N[C@H](C(N)=O)C(C)C)[C@@H](C)CC)[C@@H](C)CC)[C@@H](C)CC)C(C)C)C(C)C
In the case of B2, the “EC50 [nM] 0% HSA (cAMP, HTRF)” value is greater than 100 nM and the “Emax (%) (100% = Sauvagine at 100 nM)” value turned out to be 15%.
